Data on six sequences can be found in the supplement of paper PMC5998384.

The subject of data set [1] is HeLa Kyoto. Kind of data set: solubility change mitosis vs G1/S (difference of NP-40 vs SDS log2 ratios) (log2 ratio difference); higher = more soluble in mitosis.
In data set [2] the test system is HeLa Kyoto. Kind of data set: melting temperature (median over replicates), in situ; higher = more thermally stable.
Data set [3] has as its system HeLa Kyoto. Kind of data set: thermal stability score vs G1/S (z-score of summed log2 fold changes over temperatures); higher = more thermally stable than in G1/S.
The test system of data set [4] is HeLa Kyoto. Kind of data set: solubility in G1/S (NP-40 vs SDS abundance) (log2 ratio); higher = more soluble. The conditions noted are these: cell cycle stage: G1/S.
Where [5] appears, read: cell cycle stage: early G1 (4.5 h after nocodazole release).
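For melting temperature (median over replicates), in situ in this document: HeLa Kyoto cells synchronized by double thymidine or nocodazole block, proteins quantified by TMT10plex mass spectrometry, three independent biological replicates.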
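For solubility change mitosis vs G1/S (difference of NP-40 vs SDS log2 ratios) in this document: synchronized HeLa Kyoto cells (double thymidine block for G1/S, nocodazole release for mitosis), protein amounts in NP-40 versus SDS lysates quantified by mass spectrometry, three biological replicates.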
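For solubility in G1/S (NP-40 vs SDS abundance) in this document: HeLa Kyoto cells arrested at G1/S by double thymidine block, proteins quantified by TMT10plex mass spectrometry in mild NP-40 versus SDS extracts, three biological replicates.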
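For thermal stability score vs G1/S (z-score of summed log2 fold changes over temperatures) in this document: synchronized HeLa Kyoto cells, proteins quantified by TMT10plex mass spectrometry, three biological replicates, mitosis taken 0.5 h after nocodazole release, G1/S directly after double thymidine block.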

As for “MGTPASGRKRTPVKDRFSAEDEALSNIAREAEARLAAKRAARAEARDIRMRELERQQKEYSLHSFDRKWGQIQKWLEDSERARYSHRSSHHRPYLGVEDALSIRSVGSHRYDMFKDRSSRLSSLNHSYSHSHGMKKRSSDSHKDLLSGLYFDQRNYSSLRHSKPTSAYYTRQSSSLYSDPLATYKSDRASPTANSGLLRSASLASLYNGGLYNPYGPRTPSECSYYSSRISSARSSPGFTNDDTASIVSSDRASRGRRESVVSAADYFSRSNRRGSVVSEVDDISIPDLSSLDEKSDKQYAENYTRPSSRNSASATTPLSGNSSRRGSGDTSSLIDPDTSLSELRDIYDLKDQIQDVEGRYMQGLKELKESLSEVEEKYKKAMVSNAQLDNEKNNLIYQVDTLKDVIEEQEEQMAEFYRENEEKSKELERQKHMCSVLQHKMEELKEGLRQRDELIEEKQRMQQKIDTMTKEVFDLQETLLWKDKKIGALEKQKEYIACLRNERDMLREELADLQETVKTGEKHGLVIIPDGTPNGDVSHEPVAGAITVVSQEAAQVLESAGEGPLDVRLRKLAGEKEELLSQIRKLKLQLEEERQKCSRNDGTVGDLAGLQNGSDLQFIEMQRDANRQISEYKFKLSKAEQDITTLEQSISRLEGQVLRYKTAAENAEKVEDELKAEKRKLQRELRTALDKIEEMEMTNSHLAKRLEKMKANRTALLAQQ [LRRFIP2]”, the “solubility change mitosis (log2)” value in the data set on HeLa Kyoto [1] was determined as 0.251. Besides, the melting temperature with HeLa Kyoto [2] (cell cycle stage: G1/S) was 53.3 °C; in the data set on HeLa Kyoto [2] (cell cycle stage: mitosis), 53.7 °C. Further, the thermal stability score in the data set on HeLa Kyoto [3] (setting [5]) is -3.39; with HeLa Kyoto [3] (cell cycle stage: mitosis), -4.14. The “solubility in G1/S (log2)” value with HeLa Kyoto [4] is 0.672.

Take “MGTPKPRILPWLVSQLDLGQLEGVAWVNKSRTRFRIPWKHGLRQDAQQEDFGIFQAWAEATGAYVPGRDKPDLPTWKRNFRSALNRKEGLRLAEDRSKDPHDPHKIYEFVNSGVGDFSQPDTSPDTNGGGSTSDTQEDILDELLGNMVLAPLPDPGPPSLAVAPEPCPQPLRSPSLDNPTPFPNLGPSENPLKRLLVPGEEWEFEVTAFYRGRQVFQQTISCPEGLRLVGSEVGDRTLPGWPVTLPDPGMSLTDRGVMSYVRHVLSCLGGGLALWRAGQWLWAQRLGHCHTYWAVSEELLPNSGHGPDGEVPKDKEGGVFDLGPFIVDLITFTEGSGRSPRYALWFCVGESWPQDQPWTKRLVMVKVVPTCLRALVEMARVGGASSLENTVDLHISNSHPLSLTSDQYKAYLQDLVEGMDFQGPGES [IRF3]”: in the data set with HeLa Kyoto [1], the “solubility change mitosis (log2)” value was 0.174. The melting temperature came out at 51.4 °C in the data set with HeLa Kyoto [2] (cell cycle stage: G1/S) and 51.7 °C in the data set with HeLa Kyoto [2] (cell cycle stage: mitosis). Also, the thermal stability score was found to be 0.111 in the data set with HeLa Kyoto [3] (setting [5]) and 1.23 in the data set on HeLa Kyoto [3] (cell cycle stage: mitosis). In addition, the “solubility in G1/S (log2)” value with HeLa Kyoto [4] was -0.0358.

For “MGTRDDEYDYLFKVVLIGDSGVGKSNLLSRFTRNEFNLESKSTIGVEFATRSIQVDGKTIKAQIWDTAGQERYRAITSAYYRGAVGALLVYDIAKHLTYENVERWLKELRDHADSNIVIMLVGNKSDLRHLRAVPTDEARAFAEKNNLSFIETSALDSTNVEEAFKNILTEIYRIVSQKQIADRAAHDESPGNNVVDISVPPTTDGQKPNKLQCCQNL [RAB11B]”, the “solubility change mitosis (log2)” value in the data set with HeLa Kyoto [1] was -0.0727. For the same sequence, the values for the melting temperature in the data set on HeLa Kyoto [2] (cell cycle stage: G1/S) and in the data set on HeLa Kyoto [2] (cell cycle stage: mitosis) were 57.1 °C and 57.5 °C, respectively. The thermal stability score was 0.344 in the data set with HeLa Kyoto [3] (setting [5]) and -0.699 with HeLa Kyoto [3] (cell cycle stage: mitosis). For the same sequence, the “solubility in G1/S (log2)” value in the data set on HeLa Kyoto [4] was found to be 0.136.

With “MGVEGCTKCIKYLLFVFNFVFWLAGGVILGVALWLRHDPQTTNLLYLELGDKPAPNTFYVGIYILIAVGAVMMFVGFLGCYGAIQESQCLLGTFFTCLVILFACEVAAGIWGFVNKDQIAKDVKQFYDQALQQAVVDDDANNAKAVVKTFHETLDCCGSSTLTALTTSVLKNNLCPSGSNIISNLFKEDCHQKIDDLFSGKLYLIGIAAIVVAVIMIFEMILSMVLCCGIRNSSVY [CD81]”, the “solubility change mitosis (log2)” value in the data set on HeLa Kyoto [1] was -0.0908. In the data set with HeLa Kyoto [2] (cell cycle stage: G1/S), this sequence registered a melting temperature of 56.1 °C. The figures for the thermal stability score in the data set with HeLa Kyoto [3] (setting [5]) and in the data set on HeLa Kyoto [3] (cell cycle stage: mitosis) were 0.287 and -0.69, respectively. Moreover, in the data set with HeLa Kyoto [4], the “solubility in G1/S (log2)” value is 0.0932.

As for “MGVWLNKDDYIRDLKRIILCFLIVYMAILVGTDQDFYSLLGVSKTASSREIRQAFKKLALKLHPDKNPNNPNAHGDFLKINRAYEVLKDEDLRKKYDKYGEKGLEDNQGGQYESWNYYRYDFGIYDDDPEIITLERREFDAAVNSGELWFVNFYSPGCSHCHDLAPTWRDFAKEVDGLLRIGAVNCGDDRMLCRMKGVNSYPSLFIFRSGMAPVKYHGDRSKESLVSFAMQHVRSTVTELWTGNFVNSIQTAFAAGIGWLITFCSKGGDCLTSQTRLRLSGMLDGLVNVGWMDCATQDNLCKSLDITTSTTAYFPPGATLNNKEKNSILFLNSLDAKEIYLEVIHNLPDFELLSANTLEDRLAHHRWLLFFHFGKNENSNDPELKKLKTLLKNDHIQVGRFDCSSAPDICSNLYVFQPSLAVFKGQGTKEYEIHHGKKILYDILAFAKESVNSHVTTLGPQNFPANDKEPWLVDFFAPWCPPCRALLPELRRASNLLYGQLKFGTLDCTVHEGLCNMYNIQAYPTTVVFNQSNIHEYEGHHSAEQILEFIEDLMNPSVVSLTPTTFNELVTQRKHNEVWMVDFYSPWCHPCQVLMPEWKRMARTLTGLINVGSIDCQQYHSFCAQENVQRYPEIRFFPPKSNKAYHYHSYNGWNRDAYSLRIWGLGFLPQVSTDLTPQTFSEKVLQGKNHWVIDFYAPWCGPCQNFAPEFELLARMIKGKVKAGKVDCQAYAQTCQKAGIRAYPTVKFYFYERAKRNFQEEQINTRDAKAIAALISEKLETLRNQGKRNKDEL [DNAJC10]”, in the data set with HeLa Kyoto [1], the “solubility change mitosis (log2)” value was -0.125. The melting temperature with HeLa Kyoto [2] (cell cycle stage: G1/S) is 54.7 °C; with HeLa Kyoto [2] (cell cycle stage: mitosis), 55.4 °C. Besides, the thermal stability score was found to be 3.17 in the data set on HeLa Kyoto [3] (setting [5]) and 4.65 with HeLa Kyoto [3] (cell cycle stage: mitosis). Further, in the data set with HeLa Kyoto [4], the “solubility in G1/S (log2)” value is -0.000819.

For the sequence “MHFSIPETESRSGDSGGSAYVAYNIHVNGVLHCRVRYSQLLGLHEQLRKEYGANVLPAFPPKKLFSLTPAEVEQRREQLEKYMQAVRQDPLLGSSETFNSFLRRAQQETQQVPTEEVSLEVLLSNGQKVLVNVLTSDQTEDVLEAVAAKLDLPDDLIGYFSLFLVREKEDGAFSFVRKLQEFELPYVSVTSLRSQEYKIVLRKSYWDSAYDDDVMENRVGLNLLYAQTVSDIERGWILVTKEQHRQLKSLQEKVSKKEFLRLAQTLRHYGYLRFDACVADFPEKDCPVVVSAGNSELSLQLRLPGQQLREGSFRVTRMRCWRVTSSVPLPSGSTSSPGRGRGEVRLELAFEYLMSKDRLQWVTITSPQAIMMSICLQSMVDELMVKKSGGSIRKMLRRRVGGTLRRSDSQQAVKSPPLLESPDATRESMVKLSSKLSAVSLRGIGSPSTDASASDVHGNFAFEGIGDEDL [SNX17]”, the “solubility change mitosis (log2)” value in the data set on HeLa Kyoto [1] is -0.263. For the same sequence, the results for the melting temperature in the data set on HeLa Kyoto [2] (cell cycle stage: G1/S) and in the data set on HeLa Kyoto [2] (cell cycle stage: mitosis) were 50.9 °C and 51.4 °C, respectively. For the same sequence, the thermal stability score in the data set with HeLa Kyoto [3] (setting [5]) worked out at 1.32; in the data set with HeLa Kyoto [3] (cell cycle stage: mitosis) it was 0.59. The “solubility in G1/S (log2)” value in the data set with HeLa Kyoto [4] was determined as 0.103.
